Legend:
[1] = target: HLA-B*15:03; test: IEDB peptide-MHC binding, purified MHC/competitive/radioactivity; filed as Kd, often an IC50 or EC50 that approximates it; ≥ and ≤ were set here for values at or beyond the usual limits of such assays
[2] = target: HLA-A*03:01; test: IEDB peptide-MHC binding, purified MHC/competitive/fluorescence; filed as Kd, often an IC50 or EC50 that approximates it; ≥ and ≤ were set here for values at or beyond the usual limits of such assays
[3] = target: HLA-B*15:42; test: as above; conditions: source organism: Salmonella enterica subsp. enterica serovar Typhi
[4] = target: HLA-B*45:06; test: as above; conditions: source organism: Salmonella enterica subsp. enterica serovar Typhi
[5] = target: HLA-B*83:01; test: as above; conditions: source organism: Salmonella enterica subsp. enterica serovar Typhi
[6] = target: HLA-A*01:01; test: IEDB peptide-MHC binding, purified MHC/direct/fluorescence; filed as Kd, often an IC50 or EC50 that approximates it; ≥ and ≤ were set here for values at or beyond the usual limits of such assays; conditions: source organism: Mammarenavirus juninense
[7] = target: HLA-A*02:01; test: as above; conditions: source organism: Mammarenavirus juninense
[8] = target: HLA-A*03:01; test: as above
[9] = target: HLA-A*29:02; test: as above; conditions: source organism: Mammarenavirus juninense
[10] = target: HLA-A*31:01; test: as above; conditions: source organism: Mammarenavirus juninense
[11] = target: HLA-A*69:01; test: as above; conditions: source organism: Mammarenavirus juninense
[12] = target: HLA-B*07:02; test: as above; conditions: source organism: Mammarenavirus juninense
[13] = target: HLA-B*15:01; test: as above; conditions: source organism: Mammarenavirus juninense
[14] = target: HLA-B*18:01; test: as above; conditions: source organism: Mammarenavirus juninense
[15] = target: HLA-B*27:05; test: as above; conditions: source organism: Mammarenavirus juninense
[16] = target: HLA-B*39:01; test: as above; conditions: source organism: Mammarenavirus juninense
[17] = target: HLA-B*40:01; test: as above; conditions: source organism: Mammarenavirus juninense
[18] = target: HLA-B*44:02; test: as above; conditions: source organism: Mammarenavirus juninense
[19] = target: HLA-B*46:01; test: as above; conditions: source organism: Mammarenavirus juninense
[20] = target: HLA-B*57:01; test: as above; conditions: source organism: Mammarenavirus juninense
[21] = target: HLA-B*58:01; test: as above; conditions: source organism: Mammarenavirus juninense
[22] = target: HLA-A*02:03; test: as above
[23] = target: HLA-A*02:11; test: as above; conditions: source organism: Zaire ebolavirus
[24] = target: HLA-A*02:12; test: as above
[25] = target: HLA-A*02:16; test: as above
[26] = target: HLA-A*02:19; test: as above
[27] = target: HLA-A*24:03; test: as above
[28] = target: HLA-A*68:02; test: as above
[29] = target: HLA-A*02:01; test: IEDB peptide-MHC binding, purified MHC/competitive/fluorescence; filed as Kd, often an IC50 or EC50 that approximates it; ≥ and ≤ were set here for values at or beyond the usual limits of such assays
[30] = target: HLA-A*26:01; test: as above
[31] = target: HLA-A*69:01; test: as above
[32] = target: HLA-B*15:01; test: as above; conditions: source organism: Zaire ebolavirus
[33] = target: HLA-B*15:17; test: as above
[34] = target: HLA-B*18:01; test: as above
[35] = target: HLA-B*27:03; test: as above
[36] = target: HLA-B*39:01; test: as above
[37] = target: HLA-B*46:01; test: as above
[38] = target: HLA-B*51:01; test: as above
[39] = target: HLA-B*57:01; test: as above
[40] = target: HLA-A*11:01; test: IEDB peptide-MHC binding, purified MHC/direct/fluorescence; filed as Kd, often an IC50 or EC50 that approximates it; ≥ and ≤ were set here for values at or beyond the usual limits of such assays; conditions: source organism: Coxiella burnetii
[41] = source organism: Vaccinia virus WR
[42] = source organism: Zaire ebolavirus
[43] = source organism: Coxiella burnetii

AKSQSDTVF
Kd [1, 41]: 0.00016 µM

FMLSVHYRK
Kd ([2]; source organism: Listeria monocytogenes HCC23): 0.364 µM

FMYFCEQKL
Kd [1, 41]: 0.0357 µM

FSMLGIWFF
Kd ([1]; source organism: Vaccinia virus Copenhagen): 0.0283 µM

FTFKVNSVK
Kd ([2]; source organism: Salmonella enterica subsp. enterica serovar Typhi): 0.152 µM
Kd [3]: ≥ 5 µM
Kd [4]: ≥ 5 µM
Kd [5]: ≥ 5 µM

GKLDPTNTL
Kd [6]: ≥ 20 µM
Kd [7]: ≥ 20 µM
Kd ([8]; source organism: Mammarenavirus juninense): ≥ 20 µM
Kd [9]: ≥ 20 µM
Kd [10]: ≥ 20 µM
Kd [11]: ≥ 20 µM
Kd [12]: ≥ 20 µM
Kd [13]: ≥ 20 µM
Kd [14]: ≥ 20 µM
Kd [15]: ≥ 20 µM
Kd [16]: 3 µM
Kd [17]: ≥ 20 µM
Kd [18]: ≥ 20 µM
Kd [19]: ≥ 20 µM
Kd [20]: ≥ 20 µM
Kd [21]: ≥ 20 µM

HISWQGPGK
Kd ([2]; source organism: Vibrio atlanticus LGP32): 0.218 µM

IEVSSDISF
Kd [1, 41]: 0.00974 µM

IFLKPDETF
Kd [22, 42]: ≥ 20 µM
Kd [23]: ≥ 20 µM
Kd [24, 42]: ≥ 20 µM
Kd [25, 42]: ≥ 20 µM
Kd [26, 42]: ≥ 20 µM
Kd [8, 42]: ≥ 20 µM
Kd ([27]; source organism: Sudan ebolavirus - Maleo (1979)): 0.0366 µM
Kd [28, 42]: ≥ 20 µM
Kd [29, 42]: ≥ 20 µM
Kd [30, 42]: ≥ 20 µM
Kd [31, 42]: ≥ 20 µM
Kd [32]: ≥ 20 µM
Kd [33, 42]: ≥ 20 µM
Kd [34, 42]: ≥ 20 µM
Kd [35, 42]: ≥ 20 µM
Kd [36, 42]: ≥ 20 µM
Kd [37, 42]: ≥ 20 µM
Kd [38, 42]: ≥ 20 µM
Kd [39, 42]: ≥ 20 µM

KFFMVHSLK
Kd [22, 43]: ≥ 20 µM
Kd [24, 43]: ≥ 20 µM
Kd [25, 43]: ≥ 20 µM
Kd [26, 43]: ≥ 20 µM
Kd [40]: 0.603 µM
Kd [27, 43]: ≥ 20 µM
Kd [28, 43]: ≥ 20 µM
Kd [29, 43]: ≥ 20 µM
Kd [30, 43]: ≥ 20 µM
Kd [31, 43]: ≥ 20 µM
Kd [33, 43]: ≥ 20 µM
Kd [34, 43]: ≥ 20 µM
Kd [35, 43]: ≥ 20 µM
Kd [36, 43]: ≥ 20 µM
Kd [37, 43]: ≥ 20 µM
Kd [38, 43]: ≥ 20 µM
Kd [39, 43]: ≥ 20 µM
